Target: T1, RAD51 (protein of the in vitro assays) (UniProt Q06609 1-339)
T1 sequence (looked up): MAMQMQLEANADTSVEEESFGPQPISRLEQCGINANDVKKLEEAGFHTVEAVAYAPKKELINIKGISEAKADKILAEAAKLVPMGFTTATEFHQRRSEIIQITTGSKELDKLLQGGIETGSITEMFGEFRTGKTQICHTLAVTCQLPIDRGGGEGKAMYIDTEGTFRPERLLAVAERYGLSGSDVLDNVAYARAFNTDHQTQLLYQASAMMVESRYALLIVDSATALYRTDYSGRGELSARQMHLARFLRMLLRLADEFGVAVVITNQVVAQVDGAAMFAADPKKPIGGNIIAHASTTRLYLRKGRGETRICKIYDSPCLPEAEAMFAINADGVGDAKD
Assay: cell-based or functional assay

B1: FIGNL1ΔN-EE (F295E, A298E) (domain or fragment, human, UniProt Q6PIW4 285-674, looked up)
chain: GPKEDSSLPTEKTEKEQLWVDQQKKYHQPQRASGSSYGGVKKSLGASRSRGILGKFVPPIPKQDGGEQNGGMQCKPYGAGPTEPAHPVDERLKNLEPKMIELIMNEIMDHGPPVNWEDIAGVEFAKATIKEIVVWPMLRPDIFTGLRGPPKGILLFGPPGTGKTLIGKCIASQSGATFFSISASSLTSKWVGEGEKMVRALFAVARCQQPAVIFIDEIDSLLSQRGDGEHESSRRIKTEFLVQLDGATTSSEDRILVVGATNRPQEIDEAARRRLVKRLYIPLPEASARKQIVINLMSKEQCCLSEEEIEQIVQQSDAFSGADMTQLCREASLGPIRSLQTADIATITPDQVRPIAYIDFENAFRTVRPSVSPKDLELYENWNKTFGCGK
  activity to dissociate RAD51 from ssDNA relative to wild-type FIGNL1ΔN (0.2 µM protein): 3.2 fold decrease
